Measurements: patent US20230383257A1, “PRODUCTION OF MEGAKARYOCYTES AND PLATELETS IN A CO-CULTURE SYSTEM” (BOARD OF REGENTS, THE UNIVERSITY OF TEXAS SYSTEM, priority 2020, published 2023)

Experiments:
CB megakaryocytes [1] = assay: Platelet secretion from megakaryocytes cultured in vitro with or without ROCK inhibitor; type: cell-based, human; conditions: 48 hrs culture, vs without inhibitor; dose-dependent
Source text: (§1) FIGS. 4A-4E. Rock inhibitor treatment enhance platelets secretion and TRAP induced activation. (FIG. 4A) Schematic representation of the strategy for the in-vitro megakaryocytes culture with or without rock inhibitor(Y27632) for 48 hrs. (FIG. 4B) Number of platelets after 48 hrs, number above bar indicates p-value. […] This indicates enhancement of functional profile of the CB platelets (FIGS. 4D-4E). Several different ROCK inhibitors can be used in this procedure including Y27632, KD025, GSK269962 and Azaindole 1([9-12].

CB platelets = assay: TRAP-induced platelet activation (CD62P expression); type: cell-based, human; conditions: after TRAP stimulation, vs without inhibitor
Source text: as §1

CB megakaryocytes [2] = assay: Megakaryocyte polyploidy by propidium iodide staining after ROCK inhibitor treatment; type: cell-based, human; conditions: treatment of mature megakaryocytes over 5 days, vs untreated
Source text: FIGS. 3A-3C. Rock inhibitor(Y27632) treatment increases megakaryocyte polyploidy. (FIG. 3A) Schematic representation of the strategy for the rock inhibitor treatment of mature megakaryocytes over 5 days. (FIG. 3B) Histogram plots showing propidium Iodide (PI) staining in fixed and permeabilized untreated or Y27632 treated megakaryocytes. (FIG. 3C) Percentage of polyploid (=>8N) megakaryocytes in untreated or Y27632 treated groups, number above bar indicates p-value.
The inventors characterized the influence of ROCK inhibitors on CB megakaryocyte ploidy changes, platelets secretions, and their functionality.
This indicates enhancement of functional profile of the CB platelets (FIGS. 4D-4E). Several different ROCK inhibitors can be used in this procedure including Y27632, KD025, GSK269962 and Azaindole 1([9-12].

[3] = test system: CB derived hematopoietic stem cells (HSCs); assay: Cell surface fucosylation by flow cytometry HECA-452 antibody staining; type: cell-based, human; conditions: FT-VI 0.025 μg/ml plus GDP-fucose, 37° C., 30 min, vs control
Source text: (§2) FIGS. 7A-7G. FIG. 7A. […] (FIG. 7C) HECA-452 antibody mean fluorescence intensity (MFI) histogram expression in control and fucosylated megakaryocytes (CD41a+CD42b+CD61+ cells). (FIGS. 7D-7E) Schematic representation of CB megakaryocytes injection into NSG mice, BM homing analysis and the percentage of homed megakaryocytes in control and fucosylated megakaryocytes group. (FIGS. 7F-7G) CB megakaryocyte injection strategy into sublethally irradiated(3Gy) NSG mice and day 7 blood circulating CB derived platelets percentages measurement in the control and fucosylated groups.
(§3) To characterize the fucosylation levels at steady state, the inventors performed flow cytometry HECA-452 antibody staining (which recognizes sLex/cutaneous lymphocyte antigen (CLA), the fucosylated selectin ligand) to measure the levels of cell surface fucosylation in the freshly isolated CB derived hematopoietic stem cells(HSCs, lineage-CD34+CD38-CD90+CD45RA− cells), megakaryocytes lineage committed, megakaryocyte erythroid progenitors (MEPs, lineage-CD34+CD38+CD135−CD45RA−), and differentiated megakaryocytes(CD41a+CD42b+ cells). […] The NSG bone marrow homing experiments determine if the CB MK's surface fucosylation modification influences their homing into the irradiated mice marrow niche. Briefly, 5×10^6 fluorescein succinimidyl ester (CFSE) dye labeled, unmanipulated control or in-vitro fucosyltransferase-VI (FT-VI) induced fucosylated, expanded CB megakaryocytes were injected into sub-lethally (3Gy) irradiated NSG mice and bone marrow homing analysis at 20 h posttransplant was performed by flow cytometry. […] Similarly, another megakaryocytes tail vein transplantation (5×10^6/mice) experiment was performed, and initial percentage circulating platelets levels were measured from the control and fucosylated MK recipient groups. […]

[4] = test system: megakaryocyte erythroid progenitors (MEPs); assay: as above; type: cell-based, human; conditions: FT-VI 0.025 μg/ml plus GDP-fucose, 37° C., 30 min, vs control
Source text: as §2, §3

[5] = test system: megakaryocytes (CD41a+CD42b+ cells); assay: as above; type: cell-based, human; conditions: FT-VI 0.025 μg/ml plus GDP-fucose, 37° C., 30 min, vs control
Source text: as §2, §3

recipient patients = conditions: ex vivo treatment of CB CD34+ progenitors with FT-VI plus GDP-fucose; cited from earlier work

C[C@@H](N)[C@H]1CC[C@H](C(=O)Nc2ccncc2)CC1 [Y27632]
platelets secretion (number of platelets) (CB megakaryocytes [1]): enhance
TRAP induced platelet activation (CD62P expression) (CB platelets): enhance
megakaryocyte polyploidy (polyploid =>8N megakaryocytes) (CB megakaryocytes [2]): increases

B1: α1,3-fucosyltransferase (protein, UniProt P51993 1-359, looked up)
4-galactosyl-N-acetylglucosami …: MDPLGPAKPQWSWRCCLTTLLFQLLMAVCFFSYLRVSQDDPTVYPNGSRFPDSTGTPAHSIPLILLWTWPFNKPIALPRCSEMVPGTADCNITADRKVYPQADAVIVHHREVMYNPSAQLPRSPRRQGQRWIWFSMESPSHCWQLKAMDGYFNLTMSYRSDSDIFTPYGWLEPWSGQPAHPPLNLSAKTELVAWAVSNWGPNSARVRYYQSLQAHLKVDVYGRSHKPLPQGTMMETLSRYKFYLAFENSLHPDYITEKLWRNALEAWAVPVVLGPSRSNYERFLPPDAFIHVDDFQSPKDLARYLQELDKDHARYLSYFRWRETLRPRSFSWALAFCKACWKLQEESRYQTRGIAAWFT
notes: fucosyl-transferase enzyme used with GDP-fucose for ex vivo fucosylation of cells
fucosylation levels (HECA-452 MFI) in HSCs [3]: significantly increased
fucosylation levels (HECA-452 MFI) in MEPs [4]: significantly increased
fucosylation levels (HECA-452 MFI) in megakaryocytes [5]: significantly increased
neutropenia and thrombocytopenia duration in recipient patients (recipient patients): significantly reduce
